Source: patent US20170137467A1 (CHROMOTEK, published 2017)
Ends that are not written are not given here. * marks the point of attachment. Biotin = O=C1N[C@H]2[C@H](CS[C@H]2CCCCC(=O)*)N1; ethylene glycol linker = not defined here

Columns and labels:
[1] = target: T1, pTag1 peptide (PDRVRAVSHWSS), biotinylated (reading uncertain); assay: biolayer interferometry, biotinylated peptide on Streptavidin biosensor; reference original BC2T (SEQ ID NO:4)
T1 construct: Immobilised on Streptavidin biosensors
T1 peptide: {Biotin-ethylene glycol linker}-PDRVRAVSHWSS
Method: Biolayer interferometry (BLI)-based affinity measurements were used to assess two improved variations of the original BC2T sequence (a: […], pTag1 SEQ ID NO:33; b: […], pTag2 SEQ ID NO:34) in comparison with the original BC2T sequence (c: BC2T SEQ ID NO:4).
The shaking rate was 1200 rpm. As a reference, each peptide was also incubated with BLItz buffer only according to the protocol above. […] The sensor was regenerated by sequential dips into 10 mM glycine pH 2.0 and BLItz buffer (repeated three times). Raw data were analysed using the software BLItz Pro (fortéBio) and a 1:1 binding model.

[2] = target: T2, mCherry-Vimentin (untagged) (UniProt P08670 1-466); assay: immunoprecipitation from HEK293T lysate with the BC2 nanotrap, immunoblot with anti-vimentin
T2 construct: Control without the BC2 tag; not shown: mCherry fluorescent protein
Method: HEK293T cells transiently expressing eGFP, eGFPBC2T or BC2TeGFP, eGFP-PCNA, eGFP-PCNABC2T, mCherry-Vimentin, mCherry-VimentinBC2T were washed and harvested in phosphate buffered saline (PBS), snap-frozen in liquid nitrogen and stored at −20° C. Cell pellets were homogenized in 200 μl lysis buffer (10 mM Tris/Cl pH 7.5, 150 mM NaCl, 0.5% NP40, 1 μg DNaseI, 2 mM MgCl₂, 2 mM PMSF, 1× protease inhibitor mix M (Serva) by repeated pipetting for 40 min on ice. After a centrifugation step (10 min at 18.000×g) the protein concentration of each lysate was determined using a Pierce BCA Protein Assay Kit (Thermo Fisher Scientific) according to manufacturer's protocol and the protein solutions were adjusted with dilution buffer (10 mM Tris/Cl pH 7.5, 150 mM NaCl, 2 mM PMSF) to a concentration of 1 mg/ml. 2% of the supernatant were added to SDS-containing sample buffer (referred to as input). […] After a centrifugation step (2 min, 2500×g) the precleared supernatant was transferred to a new cup. 2% were added to SDS-containing sample buffer (referred to as non-bound). […] Samples were analyzed by SDS-PAGE followed by immunoblotting. Immunoblots were probed with indicated antibodies.

[3] = target: T3, MEPDRKAAVS; assay: truncated peptides of β-catenin aa 14-27 on OVA-microspheres, biotinylated BC2-Nb, streptavidin-PE
T3 construct: C-terminal truncation; also called β-catenin aa 14-23
T3 peptide: MEPDRKAAVS
Text: (§1) As negative controls, microspheres comprising Ovalbumin and the Myc-peptide ([…]) covalently coupled to OVA-microspheres were used. […] Evaluation of the PE-signals were done in a Flexmap 3D (Luminex).

[4] = target: T4, DRKAAVSHWQQ; assay: as above
T4 construct: N-terminal truncation; also called β-catenin aa 17-27
T4 peptide: DRKAAVSHWQQ
Text: as §1

[5] = target: T5, MEPDRKAAVSHW; assay: as above
T5 construct: C-terminal truncation; also called β-catenin aa 14-25
T5 peptide: MEPDRKAAVSHW
Text: as §1

[6] = target: T6, MEPDRKAAVSH; assay: as above
T6 construct: C-terminal truncation; also called β-catenin aa 14-24
T6 peptide: MEPDRKAAVSH
Text: as §1

[7] = target: T7, KAAVSHWQQ; assay: as above
T7 construct: N-terminal truncation; also called β-catenin aa 19-27
T7 peptide: KAAVSHWQQ
Text: as §1

[8] = target: T8, EPDRKAAVSHWQQ; assay: as above
T8 construct: N-terminal truncation; also called β-catenin aa 15-27
T8 peptide: EPDRKAAVSHWQQ
Text: as §1

[9] = target: T9, MEPDRKAAVSHWQQ; assay: as above
T9 construct: full-length peptide of both truncation series; also called β-catenin aa 14-27
T9 peptide: MEPDRKAAVSHWQQ
Text: as §1

[10] = target: T10, AAVSHWQQ; assay: as above
T10 construct: N-terminal truncation; also called β-catenin aa 20-27
T10 peptide: AAVSHWQQ
Text: as §1

[11] = target: T11, recombinant human β-catenin, full-length (human, UniProt P35222 1-781, limits assumed); assay: SPR (Biacore 3000), recombinant β-catenin immobilized, five Nb concentrations, 1:1 Langmuir
T11 construct: Purified from E. coli; also called full-length β-catenin
T11 sequence (looked up): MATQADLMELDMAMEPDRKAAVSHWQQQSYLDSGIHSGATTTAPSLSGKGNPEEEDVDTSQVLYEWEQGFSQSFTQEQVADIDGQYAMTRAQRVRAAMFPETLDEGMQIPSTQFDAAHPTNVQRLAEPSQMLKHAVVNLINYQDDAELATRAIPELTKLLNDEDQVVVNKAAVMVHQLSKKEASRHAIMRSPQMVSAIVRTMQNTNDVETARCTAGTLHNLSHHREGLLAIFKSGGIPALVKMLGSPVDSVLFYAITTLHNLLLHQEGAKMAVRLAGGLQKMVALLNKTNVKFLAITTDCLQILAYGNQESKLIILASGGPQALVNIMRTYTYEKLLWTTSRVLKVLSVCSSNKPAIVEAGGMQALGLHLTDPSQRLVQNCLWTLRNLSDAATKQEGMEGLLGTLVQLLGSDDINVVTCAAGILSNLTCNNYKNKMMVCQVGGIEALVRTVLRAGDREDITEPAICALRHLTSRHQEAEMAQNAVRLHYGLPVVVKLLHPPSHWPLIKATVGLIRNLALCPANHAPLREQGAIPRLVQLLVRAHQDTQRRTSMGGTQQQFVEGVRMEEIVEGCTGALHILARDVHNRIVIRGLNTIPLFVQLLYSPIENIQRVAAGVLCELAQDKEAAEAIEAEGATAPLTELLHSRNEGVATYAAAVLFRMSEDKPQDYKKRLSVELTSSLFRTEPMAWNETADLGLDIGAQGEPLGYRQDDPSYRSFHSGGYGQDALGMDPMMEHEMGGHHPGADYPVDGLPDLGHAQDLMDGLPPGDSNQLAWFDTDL
Method: The dissociation was induced by two injections of regeneration solution of 15 μl each at the identical flow rates.

T2 sequence (P08670 whole entry): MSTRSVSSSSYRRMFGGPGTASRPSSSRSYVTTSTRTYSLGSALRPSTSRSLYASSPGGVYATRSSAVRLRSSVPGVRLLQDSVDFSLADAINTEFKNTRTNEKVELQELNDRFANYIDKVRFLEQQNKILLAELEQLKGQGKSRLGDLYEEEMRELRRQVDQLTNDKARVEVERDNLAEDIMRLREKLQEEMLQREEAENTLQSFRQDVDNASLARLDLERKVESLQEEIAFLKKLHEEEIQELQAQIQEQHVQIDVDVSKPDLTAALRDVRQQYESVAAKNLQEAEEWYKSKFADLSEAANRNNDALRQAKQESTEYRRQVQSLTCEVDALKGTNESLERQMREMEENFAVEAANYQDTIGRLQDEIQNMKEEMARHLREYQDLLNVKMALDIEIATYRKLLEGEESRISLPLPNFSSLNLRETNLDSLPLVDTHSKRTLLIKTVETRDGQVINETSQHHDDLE

B1: BC2 nanobody (VHH)
VHH: QVQLVESGGGLVQPGGSLTLSCTASGFTLDHYDIGWFRQAPGKEREGVSCINNSDDDTYYADSVKGRFTIFMDNAKDTVYLQMNSLKPEDTAIYYCAEARGCKRGRYEYDFWGQGTQVTVSS
notes: Alpaca VHH, 122 aa; also called BC2-Nb; BC2 nanotrap (BC2-Nb immobilized on agarose/Sepharose beads); not shown: C-terminal 6xHis-tag added by the pHEN6 vector
Question: How did the “fold slower koff than for original BC2T” value [1] turn out when B1 was run?
Answer: 7 fold

Question: Does B1 bind [2]?
Answer: no binding

Question: Does B1 bind [3]?
Answer: no binding (tested: 1 µg/ml BC2-Nb)

Question: Does B1 bind [4]?
Answer: binds

Question: Does B1 bind [5]?
Answer: binds

Question: Does B1 bind [6]?
Answer: no binding (tested: 1 µg/ml BC2-Nb)

Question: Does B1 bind [7]?
Answer: no binding (tested: 1 µg/ml BC2-Nb)

Question: Does B1 bind [8]?
Answer: binds

Question: Does B1 bind [9]?
Answer: binds

Question: Does B1 bind [10]?
Answer: no binding (tested: 1 µg/ml BC2-Nb)

Question: And the Kd [11]?
Answer: ~3.1 nM
